Results from patent US20110097270A1 (published 2011).

Target: hepatitis B virus (HBV) inoculum (hepatitis B virus)
Assay: cell-based or functional assay

B1: HBV#8 Fab (Fab, V domains shown)
VH: EVQLLESGPGLVKPSQTLSLTCAVSGAFMTSDYLYWSWLRQPPGKGPEWIGGIYTTGRSHYNPSLRGRATLSVDTSKNQFSLELNSVTAADTAVYYCARGQYHNWGPSLFDYYNYYYMDVWGKGTTVTVSS
VL: AAELTQSPSSLSASVGDRVTITCRASQDISNYLAWYQQKPGKAPKLLIYSASRLQSGVPSRFSGSGSGTDYTLTLSSLHPEDSATYYCHQYHSAPWTFGQGTKVEIKR
P/N of HBsAg in cell supernatant (RIA, day 12) at MAb 0.01 µg ml^-1: 82 P/N ratio | P/N of HBsAg in cell supernatant (RIA, day 12) at MAb 0.1 µg ml^-1: 83.3 P/N ratio | P/N of HBsAg in cell supernatant (RIA, day 12) at MAb 1.0 µg ml^-1: 55.8 P/N ratio | P/N of HBsAg in cell supernatant (RIA, day 12) at MAb 10.0 µg ml^-1: 4.1 P/N ratio
